This is an account of results in patent US20140357577A1, “HIV Membrane Fusion Inhibitors” (priority 2011, published 2014).

Starred links: 1 amine or outer side, 2 acyl side, 3 side chain; linkers in the order of their positions; H or OH if unused. Positions of bridges follow the written chain, without caps; N, C: chain ends. Non-standard residues stand in square brackets, D forms with d. Primed or numbered codes have the meaning given here. *: point of attachment. B21″ = 2,7-dimethylnaphtyl linker joining two Cys, c1cc2ccc(C[*:2])cc2cc1C[*:1]; Palmitoyl = CCCCCCCCCCCCCCCC(=O)*; tBuAla = CC(C)(C)C[C@H](N)C(=O)O; Suc = O=C(CCC(=O)[*:2])[*:1]; Isovaleryl = CC(C)CC(=O)*; Pentanoyl = CCCCC(=O)*; B1 = not defined here; B2 = not defined here

Assay [1] concerns HIV-IIIB + 50% HS. Nature of the assay: Standard AVE (50% Human Serum), HIV-1 replication assay in MT4-LTR-EGFP cells. It is filed as cell-based. To be noted: fold change vs EC50 in the assay without human serum. From the text:
The HIV-1 replication assay (with 50% human serum) measures virus replication as an induction of enhanced green fluorescent protein (EGFP) expression, in the presence of 50% human serum. The indicator MT4-LTR-EGFP cells contain an EGFP gene under the control of the HIV-1 LTR promoter sequence. Successful HIV-1 infection results in viral Tat protein expression and subsequent induction of EGFP expression. Compounds/peptides inhibiting HIV-1 infection are expected to reduce EGFP expression as compared to the untreated HIV-infected control. Compounds/peptides binding to human serum are expected to have a reduced activity for inhibiting the virus in the assay.
Serial 4-fold dilutions of test compounds/peptides were mixed with HIV-1 and MT4-LTR-EGFP cells and incubated at 37° C., in the presence of 50% human serum. After 3 days, the wells were examined for EGFP expression using an argon laser-scanning microscope. The effective compound/peptide concentration inhibiting 50% of the virus-induced EGFP signal (EC50) was determined by linear interpolation of the EGFP signal vs. logarithm of the compound concentration; T20, C34 and Sifuvirtide were added as reference compounds. Results were reported as a fold change in EC50, as compared with the acquired EC50 in the assay without human serum.

Assay [2] deals with gp41 of HIV-1 strain HXB2D with mutation V38A (HIV-1 strain HXB2D, UniProt P04578). Nature of the assay: cell-based or functional assay.

Turning to “Ac-aCYAACIEALIRAAQEQQEKNEAALr-NH2 [Peptide 76]”, the “HIV-IIIB + 50% HS (Fold change in EC50)” value in assay [1] is on record as 2.

B1: peptide 16 (peptide)
peptide: Pentanoyl-ANYAALIEALIRKAQEQQEKNEAALR-NH2
SMILES: CCCCC(=O)N[C@@H](C)C(=O)N[C@@H](CC(N)=O)C(=O)N[C@@H](Cc1ccc(O)cc1)C(=O)N[C@@H](C)C(=O)N[C@@H](C)C(=O)N[C@@H](CC(C)C)C(=O)N[C@H](C(=O)N[C@@H](CCC(=O)O)C(=O)N[C@@H](C)C(=O)N[C@@H](CC(C)C)C(=O)N[C@H](C(=O)N[C@@H](CCCNC(=N)N)C(=O)N[C@@H](CCCCN)C(=O)N[C@@H](C)C(=O)N[C@@H](CCC(N)=O)C(=O)N[C@@H](CCC(=O)O)C(=O)N[C@@H](CCC(N)=O)C(=O)N[C@@H](CCC(N)=O)C(=O)N[C@@H](CCC(=O)O)C(=O)N[C@@H](CCCCN)C(=O)N[C@@H](CC(N)=O)C(=O)N[C@@H](CCC(=O)O)C(=O)N[C@@H](C)C(=O)N[C@@H](C)C(=O)N[C@@H](CC(C)C)C(=O)N[C@@H](CCCNC(=N)N)C(N)=O)[C@@H](C)CC)[C@@H](C)CC
Regarding B1, in assay [2], the “fold change in EC50, HIV-HXB2D V38A mutant” value came to 49 fold.

B2: peptide 13 (peptide)
peptide: Suc-ANYLALIEALIRAAQEQQEKNEAALK(Palmitoyl)-NH2
SMILES: CCCCCCCCCCCCCCCC(=O)NCCCC[C@H](NC(=O)[C@H](CC(C)C)NC(=O)[C@H](C)NC(=O)[C@H](C)NC(=O)[C@H](CCC(=O)O)NC(=O)[C@H](CC(N)=O)NC(=O)[C@H](CCCCN)NC(=O)[C@H](CCC(=O)O)NC(=O)[C@H](CCC(N)=O)NC(=O)[C@H](CCC(N)=O)NC(=O)[C@H](CCC(=O)O)NC(=O)[C@H](CCC(N)=O)NC(=O)[C@H](C)NC(=O)[C@H](C)NC(=O)[C@H](CCCNC(=N)N)NC(=O)[C@@H](NC(=O)[C@H](CC(C)C)NC(=O)[C@H](C)NC(=O)[C@H](CCC(=O)O)NC(=O)[C@@H](NC(=O)[C@H](CC(C)C)NC(=O)[C@H](C)NC(=O)[C@H](CC(C)C)NC(=O)[C@H](Cc1ccc(O)cc1)NC(=O)[C@H](CC(N)=O)NC(=O)[C@H](C)NC(=O)CCC(=O)O)[C@@H](C)CC)[C@@H](C)CC)C(N)=O
For B2, the “fold change in EC50, HIV-HXB2D V38A mutant” value in assay [2] turned out to be 2 fold.

B3: peptide 14 (peptide)
peptide: Pentanoyl-ANYAALIEALIRAAQEQQEKNEAALR-NH2
SMILES: CCCCC(=O)N[C@@H](C)C(=O)N[C@@H](CC(N)=O)C(=O)N[C@@H](Cc1ccc(O)cc1)C(=O)N[C@@H](C)C(=O)N[C@@H](C)C(=O)N[C@@H](CC(C)C)C(=O)N[C@H](C(=O)N[C@@H](CCC(=O)O)C(=O)N[C@@H](C)C(=O)N[C@@H](CC(C)C)C(=O)N[C@H](C(=O)N[C@@H](CCCNC(=N)N)C(=O)N[C@@H](C)C(=O)N[C@@H](C)C(=O)N[C@@H](CCC(N)=O)C(=O)N[C@@H](CCC(=O)O)C(=O)N[C@@H](CCC(N)=O)C(=O)N[C@@H](CCC(N)=O)C(=O)N[C@@H](CCC(=O)O)C(=O)N[C@@H](CCCCN)C(=O)N[C@@H](CC(N)=O)C(=O)N[C@@H](CCC(=O)O)C(=O)N[C@@H](C)C(=O)N[C@@H](C)C(=O)N[C@@H](CC(C)C)C(=O)N[C@@H](CCCNC(=N)N)C(N)=O)[C@@H](C)CC)[C@@H](C)CC
On to B3, for which the “fold change in EC50, HIV-HXB2D V38A mutant” value in assay [2] worked out at 46 fold.

B4: peptide 17 (peptide)
peptide: Isovaleryl-ANYAALIEALIRAAQEQQEKNEAALR-NH2
SMILES: CC[C@H](C)[C@H](NC(=O)[C@H](CC(C)C)NC(=O)[C@H](C)NC(=O)[C@H](CCC(=O)O)NC(=O)[C@@H](NC(=O)[C@H](CC(C)C)NC(=O)[C@H](C)NC(=O)[C@H](C)NC(=O)[C@H](Cc1ccc(O)cc1)NC(=O)[C@H](CC(N)=O)NC(=O)[C@H](C)NC(=O)CC(C)C)[C@@H](C)CC)C(=O)N[C@@H](CCCNC(=N)N)C(=O)N[C@@H](C)C(=O)N[C@@H](C)C(=O)N[C@@H](CCC(N)=O)C(=O)N[C@@H](CCC(=O)O)C(=O)N[C@@H](CCC(N)=O)C(=O)N[C@@H](CCC(N)=O)C(=O)N[C@@H](CCC(=O)O)C(=O)N[C@@H](CCCCN)C(=O)N[C@@H](CC(N)=O)C(=O)N[C@@H](CCC(=O)O)C(=O)N[C@@H](C)C(=O)N[C@@H](C)C(=O)N[C@@H](CC(C)C)C(=O)N[C@@H](CCCNC(=N)N)C(N)=O
As for B4, the “fold change in EC50, HIV-HXB2D V38A mutant” value in assay [2] came out at 75 fold.
The same measure, in the same setting: with Suc-CYLACIEELIRKAQEQQEKNEAAL[tBuAla]-NH2 (linker 1-5 via B2; reading uncertain) [peptide 23] the figure was 45 fold.

B5: peptide 19 (peptide)
peptide: Suc-ENYLALIEELIRKAQEQQEKNEAALR-NH2
SMILES: CC[C@H](C)[C@H](NC(=O)[C@H](CC(C)C)NC(=O)[C@H](C)NC(=O)[C@H](CC(C)C)NC(=O)[C@H](Cc1ccc(O)cc1)NC(=O)[C@H](CC(N)=O)NC(=O)[C@H](CCC(=O)O)NC(=O)CCC(=O)O)C(=O)N[C@@H](CCC(=O)O)C(=O)N[C@@H](CCC(=O)O)C(=O)N[C@@H](CC(C)C)C(=O)N[C@H](C(=O)N[C@@H](CCCNC(=N)N)C(=O)N[C@@H](CCCCN)C(=O)N[C@@H](C)C(=O)N[C@@H](CCC(N)=O)C(=O)N[C@@H](CCC(=O)O)C(=O)N[C@@H](CCC(N)=O)C(=O)N[C@@H](CCC(N)=O)C(=O)N[C@@H](CCC(=O)O)C(=O)N[C@@H](CCCCN)C(=O)N[C@@H](CC(N)=O)C(=O)N[C@@H](CCC(=O)O)C(=O)N[C@@H](C)C(=O)N[C@@H](C)C(=O)N[C@@H](CC(C)C)C(=O)N[C@@H](CCCNC(=N)N)C(N)=O)[C@@H](C)CC
Turning to B5, in assay [2], the “fold change in EC50, HIV-HXB2D V38A mutant” value came out at 22 fold.

B6: peptide 15 (peptide)
peptide: Pentanoyl-ANYLALIEALIRAAQEQQEKNEAALR-NH2
SMILES: CCCCC(=O)N[C@@H](C)C(=O)N[C@@H](CC(N)=O)C(=O)N[C@@H](Cc1ccc(O)cc1)C(=O)N[C@@H](CC(C)C)C(=O)N[C@@H](C)C(=O)N[C@@H](CC(C)C)C(=O)N[C@H](C(=O)N[C@@H](CCC(=O)O)C(=O)N[C@@H](C)C(=O)N[C@@H](CC(C)C)C(=O)N[C@H](C(=O)N[C@@H](CCCNC(=N)N)C(=O)N[C@@H](C)C(=O)N[C@@H](C)C(=O)N[C@@H](CCC(N)=O)C(=O)N[C@@H](CCC(=O)O)C(=O)N[C@@H](CCC(N)=O)C(=O)N[C@@H](CCC(N)=O)C(=O)N[C@@H](CCC(=O)O)C(=O)N[C@@H](CCCCN)C(=O)N[C@@H](CC(N)=O)C(=O)N[C@@H](CCC(=O)O)C(=O)N[C@@H](C)C(=O)N[C@@H](C)C(=O)N[C@@H](CC(C)C)C(=O)N[C@@H](CCCNC(=N)N)C(N)=O)[C@@H](C)CC)[C@@H](C)CC
Turning to B6, the “fold change in EC50, HIV-HXB2D V38A mutant” value in assay [2] stood at 18 fold.

B7: peptide 22 (peptide)
peptide: Ac-CYAACIEALIRAAQEQQEKNEAALR-NH2
modifications: linker 1-5 via B21″
SMILES: CC[C@H](C)[C@H](NC(=O)[C@H](CC(C)C)NC(=O)[C@H](C)NC(=O)[C@H](CCC(=O)O)NC(=O)[C@@H](NC(=O)[C@@H]1CSCc2ccc3ccc(cc3c2)CSC[C@H](NC(C)=O)C(=O)N[C@@H](Cc2ccc(O)cc2)C(=O)N[C@@H](C)C(=O)N[C@@H](C)C(=O)N1)[C@@H](C)CC)C(=O)N[C@@H](CCCNC(=N)N)C(=O)N[C@@H](C)C(=O)N[C@@H](C)C(=O)N[C@@H](CCC(N)=O)C(=O)N[C@@H](CCC(=O)O)C(=O)N[C@@H](CCC(N)=O)C(=O)N[C@@H](CCC(N)=O)C(=O)N[C@@H](CCC(=O)O)C(=O)N[C@@H](CCCCN)C(=O)N[C@@H](CC(N)=O)C(=O)N[C@@H](CCC(=O)O)C(=O)N[C@@H](C)C(=O)N[C@@H](C)C(=O)N[C@@H](CC(C)C)C(=O)N[C@@H](CCCNC(=N)N)C(N)=O
On to B7, for which the “fold change in EC50, HIV-HXB2D V38A mutant” value in assay [2] came to 19 fold.
Still for that read-out and setting: with Ac-CYAACIEALIRAAQEQQEKNEAALR-NH2 (linker 1-5 via B1; reading uncertain) [peptide 21] the figure was 75 fold.

B8: peptide 20 (peptide)
peptide: Suc-ENYLRLIEELIRKAQEQQEKNEAALR-NH2
SMILES: CC[C@H](C)[C@H](NC(=O)[C@H](CC(C)C)NC(=O)[C@H](CCC(=O)O)NC(=O)[C@H](CCC(=O)O)NC(=O)[C@@H](NC(=O)[C@H](CC(C)C)NC(=O)[C@H](CCCNC(=N)N)NC(=O)[C@H](CC(C)C)NC(=O)[C@H](Cc1ccc(O)cc1)NC(=O)[C@H](CC(N)=O)NC(=O)[C@H](CCC(=O)O)NC(=O)CCC(=O)O)[C@@H](C)CC)C(=O)N[C@@H](CCCNC(=N)N)C(=O)N[C@@H](CCCCN)C(=O)N[C@@H](C)C(=O)N[C@@H](CCC(N)=O)C(=O)N[C@@H](CCC(=O)O)C(=O)N[C@@H](CCC(N)=O)C(=O)N[C@@H](CCC(N)=O)C(=O)N[C@@H](CCC(=O)O)C(=O)N[C@@H](CCCCN)C(=O)N[C@@H](CC(N)=O)C(=O)N[C@@H](CCC(=O)O)C(=O)N[C@@H](C)C(=O)N[C@@H](C)C(=O)N[C@@H](CC(C)C)C(=O)N[C@@H](CCCNC(=N)N)C(N)=O
For the molecule B8, the “fold change in EC50, HIV-HXB2D V38A mutant” value in assay [2] turned out to be 8 fold.
